Data from patent publication US20230181729A1 (IMMATICS BIOTECHNOLOGIES, published 2023).

B1: TCR R17P1D7 (TCR, V domains shown)
V domain 1: QTVTQSQPEMSVQEAETVTLSCTYDTSESDYYLFWYKQPPSRQMILVIRQEAYKQQNATENRFSVNFQKAAKSFSLKISDSQLGDAAMYFCAYRWAQGGSEKLVFGKGTKLTVNP
V domain 2: DIYQTPRYLVIGTGKKITLECSQTMGHDKMYWYQQDPGMELHLIHYSYGVNSTEKGDLSSESTVSRIRTEHFPLTLESARPSHTSQYLCATELWSSGGTGELFFGEGSRLTVLE
B2: TCR R16P1E8 (TCR, V domains shown)
V domain 1: QKEVEQDPGPLSVPEGAIVSLNCTYSNSAFQYFMWYRQYSRKGPELLMYTYSSGNKEDGRFTAQVDKSSKYISLFIRDSQPSDSATYLCAMSEAAGNKLTFGGGTRVLVKP
V domain 2: EAGVAQSPRYKIIEKRQSVAFWCNPISGHATLYWYQQILGQGPKLLIQFQNNGVVDDSQLPKDRFSAERLKGVDSTLKIQPAKLEDSAVYLCASSYTNQGEAFFGQGTRLTVVE

Molecular target: HLA-A*02/PRAME-004 presented on cells (PRAME-004-loaded T2 cells or PRAME-004-positive tumor cell lines) (human)
Experiment: cell-based or functional assay

| Binder | EC50 of IFNγ release by CD8+ T cells re-expressing the TCR; T2 cells loaded with PRAME-004 (10 µM to 10 pM) |
| --- | --- |
| B1 | 1.83 nM |
| B2 | ~1 µM |
